Assay results from publication PMC7344962 (2020).
Substitutions are numbered along the chain they refer to.

T1: major surface antigen 1 (SAG1) of Toxoplasma gondii (Toxoplasma gondii, UniProt P13664 48-336)
T1 chain: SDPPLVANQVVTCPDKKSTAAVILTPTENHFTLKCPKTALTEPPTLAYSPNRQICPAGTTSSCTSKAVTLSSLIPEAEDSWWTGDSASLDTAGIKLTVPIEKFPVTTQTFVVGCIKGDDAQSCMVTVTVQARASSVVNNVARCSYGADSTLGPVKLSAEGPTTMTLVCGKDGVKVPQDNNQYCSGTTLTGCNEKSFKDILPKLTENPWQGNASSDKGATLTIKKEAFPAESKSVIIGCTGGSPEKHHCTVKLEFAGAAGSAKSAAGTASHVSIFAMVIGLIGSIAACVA

B1: scFv S1A0 (scFv, V domains shown)
VH: QVQLQQSGAELVRPGVSVKISCKGSGYTFTDYGMHWVKQSHAKSLEWIGIISTYSGDASYNQKFKGKATMTVDKSSSTAYMELARLTSEDSAIYYCARSSTWYYFDYWGQGTTLTVSS
VL: DIQVTQTTSSLSASLGDRVTISCRASQDISNYLNWYQQKPDGTVKLLIYYTSRLHSGVPSRFSGSGSGTDYSLTISNLEQEDIATYFCQQGNTLPYTFGGGTKLEIK
B2: scFv S1B4 (scFv, V domains shown)
VH: B1 VH with V16T, G24A, E82Q, A84S, R85S, I93V, T113L, L114V, S118A
VL: B1 VL with V4M, T8P, Q80P, F87Y
B3: scFv S1C4 (scFv, V domains shown)
VH: B1 VH with S40R, H41P, A42G, K43H, S44G
VL: B1 VL with V4M, T8P, Q80P, F87Y
B4: scFv S1D4 (scFv, V domains shown)
VH: QVQLQQSGAELVRPGTSVKISCKASGYTFTDYGMHWVKQRPGHGLEWIGIISTYSGDASYNQKFKGKATMTVDKSSSTAYMQLSSLTSEDSAVYYCARSSTWYYFDYWGQGTLVTVSA
VL: B1 VL with V4M, T8P, Q80P, F87Y
B5: scFv S1A4 (scFv, V domains shown)
VH: B1 VH
VL: B1 VL with V4M, T8P, Q80P, F87Y

Target: T1, major surface antigen 1 (SAG1) of …
Assay: SPR; two-state fit (kd1)

Binder | koff
B1 | 0.0137 s⁻¹
B2 | 0.0255 s⁻¹
B3 | 0.0158 s⁻¹
B4 | 0.0183 s⁻¹
B5 | 0.0142 s⁻¹

Target: T1, major surface antigen 1 (SAG1) of …
Assay: SPR; Langmuir 1:1 fit

Binder | Kd
B2 | 323 nM
B3 | 61 nM
B4 | 400 nM
B5 | 236 nM

Target: T1, major surface antigen 1 (SAG1) of …
Assay: SPR

Binder | Kd
B4 | 400 nM

Target: T1, major surface antigen 1 (SAG1) of …
Assay: SPR
Remark: another data set of the same source

Binder | Kd
B2 | 323 nM
B3 | 61 nM
B5 | 236 nM

Target: T1, major surface antigen 1 (SAG1) of …
Assay: SPR; two-state fit (KDapp)

Binder | Kd
B1 | 181 nM
B2 | 329 nM
B3 | 59 nM
B4 | 360 nM
B5 | 117 nM
